Consider one substance from patent US20050265970A1.

The target of the assay is GST-MKK7 (GST-JNKK2; human JNKK2 in pGEX-2T) (human) (UniProt O14733). Description: in vitro pull-down with purified GST-MKK7 and increasing His6/T7-tagged protein, anti-T7 Western blot; JIP1 under non-saturating conditions. (In general: In western blotting, separated proteins are transferred to a membrane and probed.)
Chain of GST-MKK7 (GST-JNKK2; human JNKK2 in pGEX-2T) (human) (O14733 1-401 Q94H/Q133P): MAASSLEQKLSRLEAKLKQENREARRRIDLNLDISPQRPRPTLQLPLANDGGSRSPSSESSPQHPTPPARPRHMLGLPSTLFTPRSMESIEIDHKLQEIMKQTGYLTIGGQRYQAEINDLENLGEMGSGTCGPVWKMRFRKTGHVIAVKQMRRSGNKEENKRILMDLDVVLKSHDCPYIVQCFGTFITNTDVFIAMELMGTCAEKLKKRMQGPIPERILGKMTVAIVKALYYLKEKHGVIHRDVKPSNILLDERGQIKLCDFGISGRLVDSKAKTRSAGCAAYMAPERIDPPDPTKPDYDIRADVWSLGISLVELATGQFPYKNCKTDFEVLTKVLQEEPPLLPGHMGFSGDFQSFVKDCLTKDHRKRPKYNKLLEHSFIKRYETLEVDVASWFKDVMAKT

Take “His6/T7-JIP1 (MKK7-binding domain of JIP1b, pET28)”: the half maximum binding (HMB) is greater than 650 nM.
